In patent US20150087584A1:

Biological target: Helicoverpa armigera gut proteases (HGP) (Helicoverpa armigera)
Test: cell-based or functional assay

Binder | HGPI activity of the IRD alone at its IC50 concentration | inhibition of HGP activity (BApNA and Azocasein substrates)
NRLCTNCCAGRKGCNYYSADGTFICEGESDPNNPKACPRNCDPNIAYSLC [inhibitory repeat domain IRD-12 of Capsicum annuum Pin-II proteinase inhibitors (CanPIs)] | 51% | 80 to 85%
QPICTNSSAGLKGCNYYNADGTFICEGESDPNHPKACPKNCDPNIAYSLC [inhibitory repeat domain IRD-9 of Capsicum annuum Pin-II proteinase inhibitors (CanPIs)] |  | 80 to 85%
